# In patent US20230044278A1 (DYNE THERAPEUTICS, published 2023):
# Numbering of substitutions follows the chain as printed. In names and notes the source's numbering stands.
# T1: recombinant cynomolgus monkey (Macaca fascicularis) transferrin receptor 1 (cynomolgus monkey (Macaca fascicularis), UniProt Q5RDH6 87-760 (Pongo abelii entry), limits assumed)
# T1 construct: also called cTfR1; cyno TfR1
# T1 chain: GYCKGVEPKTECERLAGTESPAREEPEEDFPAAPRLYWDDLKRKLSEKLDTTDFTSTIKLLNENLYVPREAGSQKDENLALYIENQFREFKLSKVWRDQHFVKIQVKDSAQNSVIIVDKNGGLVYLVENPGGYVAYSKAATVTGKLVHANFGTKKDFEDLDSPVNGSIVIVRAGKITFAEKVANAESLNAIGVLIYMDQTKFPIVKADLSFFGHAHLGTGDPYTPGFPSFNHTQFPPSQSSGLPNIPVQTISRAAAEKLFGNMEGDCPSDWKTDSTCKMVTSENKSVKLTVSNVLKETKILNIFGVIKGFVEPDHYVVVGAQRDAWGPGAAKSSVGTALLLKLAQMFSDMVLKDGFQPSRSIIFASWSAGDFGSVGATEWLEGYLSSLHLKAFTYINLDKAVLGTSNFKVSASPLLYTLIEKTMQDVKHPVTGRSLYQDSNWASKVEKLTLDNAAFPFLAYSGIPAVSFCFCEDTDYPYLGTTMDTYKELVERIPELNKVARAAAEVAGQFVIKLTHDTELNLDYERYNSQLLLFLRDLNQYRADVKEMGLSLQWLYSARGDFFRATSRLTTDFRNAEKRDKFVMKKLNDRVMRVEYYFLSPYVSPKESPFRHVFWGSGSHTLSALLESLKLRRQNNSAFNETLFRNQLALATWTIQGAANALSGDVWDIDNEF
# B1: humanized anti-TfR Fab 3M12 (VH3/Vk2) (Fab, V domains shown)
# VH: QVQLQESGPGLVKPSQTLSLTCSVTGYSITSGYYWNWIRQPPGKGLEWMGYITFDGANNYNPSLKNRVSISRDTSKNQFSLKLSSVTAEDTATYYCTRSSYDYDVLDYWGQGTTVTVSS
# VL: DIQMTQSPSSLSASVGDRVTITCRASQDISNFLNWYQQKPGQPVKLLIYYTSRLHSGVPSRFSGSGSGTDFTLTISSLQPEDFATYFCQQGHTLPYTFGQGTKLEIKR
# notes: unconjugated; also called 3M12 VH3/Vκ2
# B2: humanized anti-TfR Fab 3M12 (VH3/Vk3) (Fab, V domains shown)
# VH: B1 VH
# VL: B1 VL with F87Y
# notes: unconjugated; also called 3M12 VH3/Vκ3
# B3: humanized anti-TfR Fab 3M12 (VH4/Vk3) (Fab, V domains shown)
# VH: B1 VH with S23T, M49I
# VL: B1 VL with F87Y
# notes: unconjugated; also called 3M12 VH4/Vκ3
# B4: humanized anti-TfR Fab 3M12 (VH4/Vk2) (Fab, V domains shown)
# VH: B1 VH with S23T, M49I
# VL: B1 VL
# notes: unconjugated; also called 3M12 VH4/Vκ2
# B5: humanized anti-TfR Fab 5H12 (VH5-C33Y/Vk4) (Fab, V domains shown)
# VH: QVQLVQSGAEVKKPGASVKVSCKASGYSFTDYYINWVRQAPGQGLEWMGWIYPGSGNTRYSERFKGRVTITRDTSASTAYMELSSLRSEDTAVYYCAREDYYPYHGMDYWGQGTLVTVSS
# VL: DIVMTQSPDSLAVSLGERATINCRASESVDGYDNSFMHWYQQKPGQPPKLLIFRASNLESGVPDRFSGSGSGTDFTLTISSLQAEDVAVYYCQQSSEDPWTFGQGTKLEIKR
# notes: unconjugated; also called 5H12 VH5 (C33Y*)/Vκ4
# B6: humanized anti-TfR Fab 5H12 (VH5-C33Y/Vk3) (Fab, V domains shown)
# VH: B5 VH
# VL: B5 VL with M4L, G72R
# notes: unconjugated; also called 5H12 VH5 (C33Y*)/Vκ3
# B7: humanized anti-TfR Fab 5H12 (VH5-C33D/Vk4) (Fab, V domains shown)
# VH: B5 VH with Y33D
# VL: B5 VL
# notes: unconjugated; also called 5H12 VH5 (C33D*)/Vκ4
# B8: humanized anti-TfR Fab 3A4 (VH3-N54T/Vk4) (Fab, V domains shown)
# VH: EVQLVQSGSELKKPGASVKVSCTASGFNIKDDYMYWVRQPPGKGLEWIGWIDPETGDTEYASKFQDRVTVTADTSTNTAYMELSSLRSEDTAVYYCTLWLRRGLDYWGQGTLVTVSS
# VL: DIVMTQSPLSLPVTPGEPASISCRSSKSLLHSNGYTYLFWFQQRPGQSPRLLIYRMSNLASGVPDRFSGSGSGTDFTLKISRVEAEDVGVYYCMQHLEYPFTFGGGTKVEIKR
# notes: unconjugated; also called 3A4 VH3 (N54T*)/Vκ4
# B9: humanized anti-TfR Fab 3A4 (VH3/Vk4) (Fab, V domains shown)
# VH: B8 VH with T55N
# VL: B8 VL
# notes: unconjugated; also called 3A4 VH3 /Vκ4
# B10: humanized anti-TfR Fab 3A4 (VH3-N54S/Vk4) (Fab, V domains shown)
# VH: B8 VH with T55S
# VL: B8 VL
# notes: unconjugated; also called 3A4 VH3 (N54S*)/Vκ4
# B11: 3M12 (VH3/Vk2) Fab conjugated to DMPK-targeting oligonucleotide ASO300 (Fab, V domains shown)
# VH: B1 VH
# VL: B1 VL
# modifications: ASO300 oligonucleotide covalently conjugated via linker of Formula (C); residue and chain not stated
# notes: also called 3M12 (VH3/Vk2) conjugate; DMPK oligo conjugate
# B12: 3M12 (VH4/Vk3) Fab conjugated to DMPK-targeting oligonucleotide ASO300 (Fab, V domains shown)
# VH: B1 VH with S23T, M49I
# VL: B1 VL with F87Y
# modifications: ASO300 oligonucleotide covalently conjugated via linker of Formula (C); residue and chain not stated
# notes: also called 3M12 (VH4/Vk3) conjugate; DMPK oligo conjugate
# B13: 5H12 (VH5-C33Y/Vk4) Fab conjugated to DMPK-targeting oligonucleotide ASO300 (Fab, V domains shown)
# VH: B5 VH
# VL: B5 VL
# modifications: ASO300 oligonucleotide covalently conjugated via linker of Formula (C); residue and chain not stated
# notes: also called DMPK oligo conjugate
# B14: 3A4 (VH3-N54T/Vk4) Fab conjugated to DMPK-targeting oligonucleotide ASO300 (Fab, V domains shown)
# VH: B8 VH
# VL: B8 VL
# modifications: ASO300 oligonucleotide covalently conjugated via linker of Formula (C); residue and chain not stated
# notes: also called 3A4 (VH3-N54T/Vk4) conjugate; DMPK oligo conjugate
# B15: 3A4 (VH3-N54S/Vk4) Fab conjugated to DMPK-targeting oligonucleotide ASO300 (Fab, V domains shown)
# VH: B8 VH with T55S
# VL: B8 VL
# modifications: ASO300 oligonucleotide covalently conjugated via linker of Formula (C); residue and chain not stated
# notes: also called 3A4 (VH3-N54S/Vk4) conjugate; DMPK oligo conjugate
# Molecular target: T2, recombinant human transferrin receptor 1 (human, UniProt P02786 89-760)
# T2 construct: also called hTfR1; huTfR1
# Assay: ELISA, thermal stability d9 (after 9 days at high temperature); printed as 'Binding affinity hTfR1 d9 (nM)'
# Protocol: (§1) To measure binding of humanized anti-TfR antibodies to TfR1, ELISAs were conducted. High binding, black, flat bottom, 96 well plates (Corning #3925) were first coated with 100 μL/well of recombinant huTfR1 at […] in PBS and incubated at 4° C. overnight. Wells were emptied and residual liquid was removed. Blocking was conducted by adding 200 μL of 1% BSA (w/w) in PBS to each well. Blocking was allowed to proceed for 2 hours at room temperature on a shaker at 300 rpm. After blocking, liquid was removed and wells were washed three times with 300 μL of TBST. Anti-TfR1 antibodies were then added in 0.5% BSA/TBST in triplicate in an 8 point serial dilution (dilution range 5 μg/mL-5 ng/mL). A positive control and isotype controls were also included on the ELISA plate. The plate was incubated at room temperature on an orbital shaker for 60 minutes at 300 rpm, and the plate was washed three times with 300 μL of TBST. Anti-(H+L)IgG-A488 (1:500) (Invitrogen #A11013) was diluted in 0.5% BSA in TBST, and 100 μL was added to each well. The plate was then allowed to incubate at room temperature for 60 minutes at 300 rpm on orbital shaker. The liquid was removed and the plate was washed four times with 300 μL of TBST. Absorbance was then measured at 495 nm excitation and […] (with a 15 nm bandwidth) on a plate reader. Data was recorded and analyzed for EC₅₀. […] ELISA measurements were conducted using cynomolgus monkey (Macaca fascicularis) TfR1 (cTfR1) according to the same protocol described above for hTfR1, and results are shown in FIGS. 1B, 1D, and 1F.
# Target sequence in this assay (P02786 89-760 limits assumed): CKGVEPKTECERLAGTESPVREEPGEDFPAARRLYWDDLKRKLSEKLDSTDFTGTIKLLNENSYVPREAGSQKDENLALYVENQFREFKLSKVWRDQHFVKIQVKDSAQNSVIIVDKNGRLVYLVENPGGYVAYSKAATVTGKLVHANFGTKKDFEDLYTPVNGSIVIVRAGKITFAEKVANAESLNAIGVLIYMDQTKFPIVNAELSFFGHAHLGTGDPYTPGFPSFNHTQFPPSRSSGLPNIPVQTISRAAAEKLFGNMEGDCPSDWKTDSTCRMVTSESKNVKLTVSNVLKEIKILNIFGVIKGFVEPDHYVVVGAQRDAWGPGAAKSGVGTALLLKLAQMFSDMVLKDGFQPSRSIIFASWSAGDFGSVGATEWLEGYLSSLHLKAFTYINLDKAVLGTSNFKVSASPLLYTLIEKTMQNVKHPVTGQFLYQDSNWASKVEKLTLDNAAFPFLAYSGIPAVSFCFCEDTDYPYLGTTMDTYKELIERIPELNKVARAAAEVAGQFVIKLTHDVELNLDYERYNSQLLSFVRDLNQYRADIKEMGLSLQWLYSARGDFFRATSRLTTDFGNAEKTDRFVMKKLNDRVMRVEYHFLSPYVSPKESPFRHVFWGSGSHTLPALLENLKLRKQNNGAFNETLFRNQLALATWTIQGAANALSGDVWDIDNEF
row,EC50 [nM],Binder
1,0.98,B1
2,1.49,B2
3,0.28,B3
4,0.5,B4
5,1730,B5
6,71.9,B6
7,92.3,B7
8,0.4,B8
9,0.46,B9
10,0.65,B10

# Molecular target: T1, recombinant cynomolgus monkey (Macaca …)
# Assay: ELISA, Fab-ASO300 conjugate; printed as 'DMPK oligo conjugate binding to cyno TfR1 (nM)'
row,EC50 [nM],Binder
1,2.26,B11
2,1.85,B12
3,13.9,B13
4,5.12,B14
5,4.1,B15

# Molecular target: T1, recombinant cynomolgus monkey (Macaca …)
# Assay: ELISA, thermal stability d9 (after 9 days at high temperature); printed as 'Binding affinity cyno TfR1 d9 (nM)'
# Protocol: The selected Fabs were analyzed for their properties binding to TfR1 by kinetic analysis. For conjugates shown in Table 8 and Table 9, the selected humanized Fabs were conjugated to a DMPK-targeting oligonucleotide ASO300.
# as §1
row,EC50 [nM],Binder
1,19.5,B1
2,15.6,B2
3,16.4,B3
4,5.01,B4
5,0.26,B5
6,0.69,B6
7,0.63,B7
8,128,B8
9,878,B9
10,248,B10

# Molecular target: T2, recombinant human transferrin receptor 1
# Assay: ELISA, Fab-ASO300 conjugate; printed as 'DMPK oligo conjugate binding to hTfR1 (nM)'; Table 9 (thermal stability table); DMPK oligo conjugate, hTfR1
row,EC50 [nM],Binder
1,13.9,B13

# Molecular target: T2, recombinant human transferrin receptor 1
# Assay: ELISA, Fab-ASO300 conjugate; printed as 'DMPK oligo conjugate binding to hTfR1 (nM)'
# Target sequence in this assay (P02786 89-760 limits assumed): as above
row,EC50 [nM],Binder
1,1.14,B11
2,1.18,B12
3,2.22,B14
4,2.71,B15
